Reference: patent US20160083466A1 (Regeneron, published 2016)

How the values were obtained:
[1] = molecular target: T1, human IL-25 expressed with a C-terminal myc-myc-hexahistidine tag (human); experiment: cell-based or functional assay
T1 chain: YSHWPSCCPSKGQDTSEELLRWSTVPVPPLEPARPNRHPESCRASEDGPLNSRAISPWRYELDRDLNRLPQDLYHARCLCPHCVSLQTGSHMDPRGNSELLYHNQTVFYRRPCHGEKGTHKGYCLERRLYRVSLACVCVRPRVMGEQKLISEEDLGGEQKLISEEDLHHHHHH

[2] = molecular target: T2, monkey IL-25 expressed with a C-terminal myc-myc-hexahistidine tag (M. fascicularis (cynomolgus monkey)); experiment: cell-based or functional assay
T2 chain: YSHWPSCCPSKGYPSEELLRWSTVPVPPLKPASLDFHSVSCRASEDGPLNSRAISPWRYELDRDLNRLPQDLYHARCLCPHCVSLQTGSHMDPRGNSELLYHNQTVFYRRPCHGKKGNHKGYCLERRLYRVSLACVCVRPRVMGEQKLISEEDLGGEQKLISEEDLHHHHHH

[3] = molecular target: T1, human IL-25 expressed with a C-terminal …; experiment: BLI Octet, hIL-25-MMH captured on anti-Penta-His sensor, 25C
Description: Binding competition between anti-IL-25 monoclonal antibodies was determined using a real time, label-free bio-layer interferometry assay on an Octet QK384 biosensor (Pall ForteBio Corp.).
The biosensors were washed in HBST kinetics buffer in between every step of the experiment. The real-time binding response was monitored during the course of the experiment and the binding response at the end of every step was recorded.

[4] = molecular target: T2, monkey IL-25 expressed with a …; experiment: SPR Biacore, antibody captured, 37C;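 for 100 nM Monkey IL-25-MMH Bound (RU): biacore 4000 surface plasmon resonance biosensor measuring binding of IL-25-MMH to purified anti-IL-25 antibodies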;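 for 100 nM Mouse IL-25-MMH Bound (RU): Real-time sensorgrams of IL-25-MMH binding to purified anti-IL-25 antibodies, rate constants obtained by fitting a 1:1 binding model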
Description: (§1) Equilibrium dissociation constants (KD values) for IL-25 binding to purified anti-IL-25 antibodies were determined using a real-time surface plasmon resonance biosensor assay on a Biacore 4000 instrument (GE Healthcare). […] All the IL-25 reagents were expressed with a C-terminal myc-myc-hexahistidine tag (referred to herein as “IL-25-MMH”). […] Kinetic association (kₐ) and dissociation (kd) rate constants were determined by fitting the real-time sensorgrams to a 1:1 binding model using Scrubber 2.0c curve fitting software.

[5] = molecular target: T3, rat IL-25 expressed with a C-terminal myc-myc-hexahistidine tag (rat); experiment: SPR Biacore, antibody captured, 25C;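 note: purified anti-IL-25 antibodies were tested by real-time surface plasmon resonance on a Biacore 4000, with rate constants obtained from sensorgram fits to a 1:1 binding model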
T3 construct: also called Rat IL-25-MMH
T3 chain: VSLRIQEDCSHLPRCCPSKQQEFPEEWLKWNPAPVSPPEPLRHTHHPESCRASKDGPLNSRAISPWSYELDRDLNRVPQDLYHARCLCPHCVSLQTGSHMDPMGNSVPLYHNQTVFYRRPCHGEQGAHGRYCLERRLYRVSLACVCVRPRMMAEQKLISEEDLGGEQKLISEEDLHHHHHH
Description: as §1

[6] = molecular target: T3, rat IL-25 expressed with a C-terminal …; experiment: SPR Biacore, antibody captured, 37C;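 for 100 nM Monkey IL-25-MMH Bound (RU): biacore 4000 surface plasmon resonance biosensor measuring binding of IL-25-MMH to purified anti-IL-25 antibodies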;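 for 100 nM Mouse IL-25-MMH Bound (RU): Real-time sensorgrams of IL-25-MMH binding to purified anti-IL-25 antibodies, rate constants obtained by fitting a 1:1 binding model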
Description: as §1

[7] = molecular target: T4, mouse IL-25 expressed with a C-terminal myc-myc-hexahistidine tag (mouse); experiment: SPR Biacore, antibody captured, 25C
T4 construct: also called Mouse IL-25-MMH; mIL-25-MMH
T4 chain: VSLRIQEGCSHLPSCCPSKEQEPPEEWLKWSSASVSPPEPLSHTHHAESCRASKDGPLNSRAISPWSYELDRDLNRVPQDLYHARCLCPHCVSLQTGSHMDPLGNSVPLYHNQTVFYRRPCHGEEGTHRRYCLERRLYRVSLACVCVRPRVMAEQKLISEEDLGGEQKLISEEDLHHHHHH

[8] = molecular target: T1, human IL-25 expressed with a C-terminal …; experiment: competition ELISA, 2 nM hIL-25-MMH binding to coated hIL-17RB-hFc
Description: (§2) Data analysis was performed using a sigmoidal dose-response model within Prism™ software (GraphPad). […] The absorbance values of the wells containing the highest concentration for each antibody were used to determine the percent maximum blockade.

[9] = molecular target: T1, human IL-25 expressed with a C-terminal …; experiment: competition ELISA, 2 nM hIL-25-MMH binding to coated hIL-17RB-hFc; (*) below theoretical bottom of the assay
Description: as §2

[10] = molecular target: T4, mouse IL-25 expressed with a C-terminal …; experiment: SPR Biacore, antibody captured, 37C;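 for 100 nM Monkey IL-25-MMH Bound (RU): biacore 4000 surface plasmon resonance biosensor measuring binding of IL-25-MMH to purified anti-IL-25 antibodies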;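 for 100 nM Mouse IL-25-MMH Bound (RU): Real-time sensorgrams of IL-25-MMH binding to purified anti-IL-25 antibodies, rate constants obtained by fitting a 1:1 binding model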

| Binder | IC50, luciferase reporter cells, 5 pM hIL-25-MMH [1] | IC50, luciferase reporter cells, 12 pM MfIL-25-MMH [2] | 50 ug/mL mAb-1 Binding (nm) [3] | 100 nM Monkey IL-25-MMH Bound (RU) [4] | Kd [4] | koff [4] | kon [4] | t½ [4] | 100 nM Rat IL-25-MMH Bound (RU) [5] | binding result [5] | 100 nM Rat IL-25-MMH Bound (RU) [6] | 100 nM Mouse IL-25-MMH Bound (RU) [7] | binding result [7] | % Maximum blocking of 200 nM antibody [8] | IC50 [9] | 100 nM Mouse IL-25-MMH Bound (RU) [10] | other results |
| --- | --- | --- | --- | --- | --- | --- | --- | --- | --- | --- | --- | --- | --- | --- | --- | --- | --- |
| H4H10861P (antibody, human IgG4, V domains shown, H4H prefix = human IgG4 Fc) VH: QVQLQESGPGLVKPSETLSLTCTVSGASISNYYWSWIRQPPGKGLEWIGYIFYSGNTNYNPSLKSRVTISVDTSKNQFSLKLSSVTAADTAVYYCARVRFSDYELNWFDPWGQGTLVTVSS VL: DIVMTQSPDSLAVFLGERATINCRSSQSVFLGSNNKNYLAWYQQKPGQPPKLLIYWASSRESGVPDRFSGSGSGTDFTLTINSLQAEDVAVYYCQQYFITPLTFGGGTKVEIK | 6.3e-11 M | 3.7e-11 M | 0.88 nm | 61 RU | 23.6 pM | 7.14e-05 s⁻¹ | 3.03e+06 M⁻¹ s⁻¹ | 2.7 h | 0 RU | no binding (tested: 100 nM) | 2 RU | 0 RU | no binding (tested: 100 nM) | 92% | 200 pM | 2 RU |  |
| H4H10862P (antibody, human IgG4, V domains shown, H4H prefix = human IgG4 Fc) VH: QVQLQESGPGLVKPSETLSLTCTVSGGSISSYFWSWIRQAPGKGLEWIGFIDYSGSTNYNPSLKSRVTISVDTSKNQFSLKLNSVTAADTAVYYCARQEIINFELNWFDPWGQGTLVTVSS VL: not shown | 8.4e-11 M | 3.3e-11 M | 0.83 nm | 70 RU | 58.9 pM | 0.000172 s⁻¹ | 2.93e+06 M⁻¹ s⁻¹ | 1.12 h | 1 RU | no binding (tested: 100 nM) | 1 RU | 0 RU | no binding (tested: 100 nM) | 89% | 240 pM | 2 RU |  |
| H4H10883P (antibody, human IgG4, V domains shown, H4H prefix = human IgG4 Fc) VH: QVQLQESGPGLVKSSETLSLTCTVSGGSISSYYWSWIRQPPGKGLEWIGFIYYSGSTNYNPSLKSRVTFSVDTSKNHFSLKLNSVTATDTAVYYCARHYFDSGTYELGPFDYWGQGTLVTVSS VL: DIVMTQSPDSLAVSLGERATINCKSSQNILLTSSNKNYLTWYQQKPGQPPKLLIYWASIRESGVPDRFSGSGSGTDFTLTISSLQAEDVALYFCQQYYITPFTFGPGTKVDIK | 1.4e-10 M | 3.9e-11 M | 0.7 nm | 72 RU | 23.9 pM | 4.18e-05 s⁻¹ | 1.75e+06 M⁻¹ s⁻¹ | 4.6 h | 0 RU |  | 0 RU | 0 RU |  | 93% | 200 pM | 1 RU |  |
| H4H10901P (antibody, human IgG4, V domains shown, H4H prefix = human IgG4 Fc) VH: QLQLQESGPGLVRPSETLSLTCSVSSGSIRSSNYYWGWIRQPPGKGLEWIGNIYYSGNTFYNPSLKGRVTISVDTSKNQFSLKLSSVTATDTAVYYCARQGYSDYELNWFDPWGQGTLVTVSS VL: DIVMTQSPDSLVLSLGERATFNCKSSQSVLDSSNNKNYLAWYQQKPGQPPKLLIYWASTRESGVPDRFSGSGSGTDFSLTISSLQAEDVALYYCQQFYNSPWTFGQGTKVEIK | 5.6e-11 M | 3.8e-11 M | 0.67 nm | 64 RU | 46.4 pM | 0.000165 s⁻¹ | 3.55e+06 M⁻¹ s⁻¹ | 1.17 h | 0 RU | no binding (tested: 100 nM) | 1 RU | 1 RU | no binding (tested: 100 nM) | 91% | 230 pM | 2 RU |  |
| H4H10903P (antibody, human IgG4, V domains shown, H4H prefix = human IgG4 Fc) VH: QVQLQESGPGLVKPSETLSLTCTVSGGSINSYSWTWIRQPPGKGLEWIGNIYNSENTNYNPSLKSRVTISVDTSKSQVSLKLNSVTAADTAVYYCARTYNWNYEIGAMGVWGQGTTVTVSS VL: not shown | 1.4e-10 M | 6e-11 M | 1.03 nm | 66 RU | 37.4 pM | 6.59e-05 s⁻¹ | 1.76e+06 M⁻¹ s⁻¹ | 2.92 h | 1 RU | no binding (tested: 100 nM) | 2 RU | 0 RU | no binding (tested: 100 nM) | 91% | 240 pM | 1 RU |  |
| H4H10906P (antibody, human IgG4, V domains shown, H4H prefix = human IgG4 Fc) VH: QVQLQESGPGLVKPSETLSLTCTVSGGSISSYYWSWIRQPPGKGLEWIGFIYYSGSTNYNPSLKSRVTISVDTSKNQFSLKLSSVTAADTAVYYCARHDSDYELYGMDVWGQGTTVTVSS VL: not shown |  | 4.7e-11 M | 0.88 nm | 73 RU | 43.1 pM | 0.00013 s⁻¹ | 3.01e+06 M⁻¹ s⁻¹ | 1.48 h | 2 RU | no binding (tested: 100 nM) | 3 RU | 1 RU | no binding (tested: 100 nM) | 89% | 140 pM | 2 RU | IC50, luciferase reporter cells, 5 pM hIL-25-MMH (second assay day) [1]: 2.7e-11 M |
| H4H10907P (antibody, human IgG4, V domains shown, H4H prefix = human IgG4 Fc) VH: EVQLVESGGGLVQPGGSLRLSCAASGFTFSNYDIHWVRQVPGKGLEWISTIGSAGDTFYPGSVKGRFTISRENAKNSLYLQMNSLRAGDSAVYYCARGDNWNYVSWFFDLWGRGTLVTVSS VL: DIQLTQSPSFLSTSVGDRVTITCWASQDISSFLAWYQQKPGKAPKLLIYAASVLQSGVPSRFSGSGSGTEFTLTISSLQPEDFATYYCQQVNSYPITFGQGTRLEIK | 2.2e-10 M | 1.4e-10 M | 1.74 nm | 50 RU | 67.1 pM | 0.000101 s⁻¹ | 1.51e+06 M⁻¹ s⁻¹ | 1.9 h | 10 RU |  | 8 RU | 10 RU |  | 87% | 550 pM | 8 RU | Kd [5]: 66900 pM; koff [5]: 0.0147 s⁻¹; kon [5]: 220000 M⁻¹ s⁻¹; t½ [5]: 48 s; Kd [6]: 85400 pM; koff [6]: 0.0204 s⁻¹; kon [6]: 238000 M⁻¹ s⁻¹; t½ [6]: 36 s; Kd [7]: 58700 pM; koff [7]: 0.0115 s⁻¹; kon [7]: 196000 M⁻¹ s⁻¹; t½ [7]: 1 min; Kd [10]: 137000 pM; koff [10]: 0.0376 s⁻¹; kon [10]: 275000 M⁻¹ s⁻¹; t½ [10]: 18 s |
| H2aM11008N (antibody, V domains shown, also called H2M11008N) VH: QVQLQESGPGLVKPSETLSLTCTVSGGSISSHYWSWIRQPPGKGLEWIGFIYYSGSTNFNPSLKSRVTISIDTSKNQFSLKLSSVTAADTAVYYCARHDYNDYELNYFDLWGRGTLASVSS VL: not shown | 1.8e-09 M |  | 0.81 nm |  |  |  |  |  | 0 RU | no binding (tested: 100 nM) | 3 RU | -1 RU |  | 98% | 430 pM | 2 RU |  |
